From publication PMC2953525, “Subtle Alterations in PCNA-Partner Interactions Severely Impair DNA Replication and Repair” (PLoS Biology, 2010)

T1: pol30-79 (yeast), P15873
T1 chain: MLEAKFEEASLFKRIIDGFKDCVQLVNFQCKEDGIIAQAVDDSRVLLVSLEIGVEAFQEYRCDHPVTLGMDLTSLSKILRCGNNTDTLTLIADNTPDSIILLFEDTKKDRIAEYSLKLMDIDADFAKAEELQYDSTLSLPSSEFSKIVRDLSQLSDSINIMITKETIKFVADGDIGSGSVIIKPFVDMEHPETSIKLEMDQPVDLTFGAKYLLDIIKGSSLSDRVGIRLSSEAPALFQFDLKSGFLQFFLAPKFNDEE


What was measured:
pol30-79 (yeast), P15873 = molecular target: T1, pol30-79 (yeast), P15873; assay: two-hybrid; quantitative Y2H: generation time of the YRG2 strains in liquid SC-Leu-Trp-His, given relative to cells expressing WT PCNA; average of at least 3 experiments; settings: remark: other sources report otherwise
Pol32 = assay: Yeast two hybrid (Y2H) analysis of PCNA-partner interaction; format: binding; settings: YRG2 strain, growth on selective agar plates lacking histidine; growth similar to WT PCNA denoted as 1
Procedure: (§1) For the Y2H assay, we used the YRG2 host strain, shown to be highly efficient in coupling the strength of protein-protein interactions with growth on media lacking histidine. Selected PCNA mutants were characterized for their ability to bind each of 12 main PCNA partners to obtain specificity profiles (Table 1, Table S1, and Figures S4–S5). […] However, in some cases a strong trade-off between the bindings of different partners was observed.
(§2) Y2H analysis was performed using the Yeast Two Hybrid Phagemid vector kit (Stratagene), following the manufacturer's instructions. The pAD-PCNA-WT/mutant plasmids were used as bait while plasmids encoding 12 different PCNA partners (Table 1 and Table S1) were used as prey. The YRG2 host strain (Stratagene) was cotransformed with pAD-PCNA WT/mutant and pBD-partner plasmids in all possible combinations using the LiAC method. Single transformants were grown in liquid SC-Leu-Trp to O.D600 10, washed twice with DDW, and diluted to an initial OD600 of 0.3. A series of 10-fold serial dilutions was then spotted onto selective SC-Leu-Trp-His plates and incubated at 30°C for 3 d. For quantitative Y2H, the generation time of the indicated mutants and their respective partners were calculated from their growth curves in liquid SC-Leu-Trp-His media. Cells were grown overnight in SC-Leu-Trp, washed twice with ddH2O, and diluted by a factor of 1∶50 into 10 ml of pre-warmed SC-Leu-Trp-His. O.D600 measurements of the cultures were taken at the indicated time; the generation time (τ) was calculated from the growth curves according to the equation ODt = OD0×2^t/τ. The generation time calculated for each culture is an average of at least 3 independent experiments.

Ung1 = assay: as above; format: binding; settings: YRG2 strain, growth on selective agar plates lacking histidine; growth similar to WT PCNA denoted as 1
Procedure: as §1, §2

Msh6 = assay: as above; format: binding; settings: YRG2 strain, growth on selective agar plates lacking histidine; growth similar to WT PCNA denoted as 1
Procedure: as §1, §2

Rad27 = assay: as above; format: binding; settings: footnote c: generation time in liquid selective media lacking histidine relative to cells expressing WT PCNA; average of at least 3 independent experiments
Procedure: as §1, §2

Rrm3 = assay: as above; format: binding; parameters: key: ++: major increase in growth; +: moderate increase in growth; similar growth as the WT PCNA-expressing cells; -: minor decrease in growth; --: moderate decrease in growth; ---: major decrease in growth; settings: spotting onto selective agar plates; PCNA fused to AD, partner to BD
Procedure: as §2
(§3) Table S1: Yeast two hybrid analysis of binding of selected PCNA mutants with seven additional partners not described in Table 1 of the main text. […]
(§4) pol30-Rad30E2 WT WT WT WT WT WT - pol30-Rad30E9 WT WT WT WT WT WT WT pol30-Rad27E6 WT WT WT WT + WT WT pol30-Rad27E31 WT WT WT WT + WT WT pol30-Rad27L1 WT -- WT WT -- WT WT pol30-Rad27L2 WT -- WT WT -- WT WT pol30-Pol32E5 WT WT WT WT WT WT WT pol30-Pol32E9 - WT WT WT WT WT WT pol30-Msh6E2 WT WT + WT WT WT WT pol30-Msh6E6 WT WT ++ WT WT WT WT pol30-Ung1E3 WT - WT WT WT WT WT pol30-79 --- --- --- - --- --- --- a PCNA mutants with enhanced affinities for the different target partners (see Table 1, text). b PCNA mutants were fused to the activating domain (AD), while the different partners were fused to the DNA-binding domain (BD). The growth of the resulting Y2H strains was compared to the growth of the WT PCNA-expressing strain following spotting onto selective agar plates (see Material and Methods). Growth rates on the agar plates were scored and tabulated as follows: ++ major increase in growth; + moderate increase in growth; WT-similar growth as the WT PCNA-expressing cells; - minor decrease in growth; -- moderate decrease in growth; --- major decrease in growth. ND-Not determined.

Cac1 = assay: as above; format: binding; parameters: key: ++: major increase in growth; +: moderate increase in growth; similar growth as the WT PCNA-expressing cells; -: minor decrease in growth; --: moderate decrease in growth; ---: major decrease in growth; settings: spotting onto selective agar plates; PCNA fused to AD, partner to BD
Procedure: as §2, §3, §4

Apn2 = assay: as above; format: binding; parameters: key: ++: major increase in growth; +: moderate increase in growth; similar growth as the WT PCNA-expressing cells; -: minor decrease in growth; --: moderate decrease in growth; ---: major decrease in growth; settings: spotting onto selective agar plates; PCNA fused to AD, partner to BD
Procedure: as §2, §3, §4

Cdc9 = assay: as above; format: binding; parameters: key: ++: major increase in growth; +: moderate increase in growth; similar growth as the WT PCNA-expressing cells; -: minor decrease in growth; --: moderate decrease in growth; ---: major decrease in growth; settings: spotting onto selective agar plates; PCNA fused to AD, partner to BD
Procedure: as §2, §3, §4

Rfc1 = assay: as above; format: binding; parameters: key: ++: major increase in growth; +: moderate increase in growth; similar growth as the WT PCNA-expressing cells; -: minor decrease in growth; --: moderate decrease in growth; ---: major decrease in growth; settings: spotting onto selective agar plates; PCNA fused to AD, partner to BD
Procedure: as §2, §3, §4

Msh3 = assay: as above; format: binding; parameters: key: ++: major increase in growth; +: moderate increase in growth; similar growth as the WT PCNA-expressing cells; -: minor decrease in growth; --: moderate decrease in growth; ---: major decrease in growth; settings: spotting onto selective agar plates; PCNA fused to AD, partner to BD
Procedure: as §2, §3, §4

Eco1 = assay: as above; format: binding; parameters: key: ++: major increase in growth; +: moderate increase in growth; similar growth as the WT PCNA-expressing cells; -: minor decrease in growth; --: moderate decrease in growth; ---: major decrease in growth; settings: spotting onto selective agar plates; PCNA fused to AD, partner to BD
Procedure: as §2, §3, §4

yeast strains = assay: Viability of haploid strains with mutant as sole source of PCNA (plasmid shuffling, 5FOA); format: cell-based; settings: for viability of strain containing the mutant as the sole source of PCNA: plasmid shuffling, selection on 5FOA; for effect of rad27 deletion on lethality of the mutant strain: rad27-deleted background, 5-FOA
From the text: To study the in vivo ability of PCNA mutants to promote DNA replication and repair in yeast, we adopted a plasmid shuffling method to create haploid yeast strains carrying each mutant as the sole source of PCNA (see Materials and Methods). This approach allowed us to identify PCNA mutants leading to cell death, indicating their inability to support essential DNA replication processes (Figure 5A). […] To verify that the replication defects in the mutant strains (Figure 5) are not due to reduced expression levels of the PCNA proteins, we confirmed the expression level of PCNA using western blot analysis and observed similar expression levels of all PCNA mutants, relative to WT PCNA (Figure S7).
Figure 5 In vivo phenotypic analysis of PCNA mutants. (A) Non-viable strains containing PCNA mutants with increased binding affinity for Rad27 as the sole version of PCNA. Yeast strains containing WT PCNA expressed from a URA3 plasmid and mutant PCNA genes expressed from a LEU2 plasmid are viable (middle). Upon selection for loss of WT PCNA using 5-floororotic acid (5FOA), PCNA mutant strains are non-viable (right). (B) MMS (middle) and HU (right) sensitivity of strains containing PCNA mutants with increased binding affinity for Rad27, Pol32, Rad30, Msh6, and Ung1 and strains containing WT PCNA in which the same partners were deleted. For binding characterization and sequences of the mutants, see Table 1.
Novel haploids containing PCNA mutants were generated using the plasmid shuffling method. Briefly, a pol30::KanMX magic marker heterozygote diploid strain BY4743 (Open Biosystem) was transformed with plasmid pRS316-POL30. Following dissection of the diploid, a haploid containing the CAN+ gene and plasmid pRS316-POL30 as a sole source of PCNA was generated. This host strain was transformed with selected pRS315-pol30 mutants, plated on SC-Ura-Leu plates, followed by replica plating to SC-Leu+5FOA plates. Haploids, containing PCNA mutants as a sole source, were further verified by plating on either SC-Leu or SC-Ura plates. For testing selected PCNA mutants, a haploid containing rad27::HYG, rad30::HYG, pol32::HYG, msh6::HYG, or ung1::HYG were generated using plasmid pAG32 by conventional genetic approaches. Growth of the PCNA mutant strains in the presence of 120 mM HU (Toronto Research Chemicals) or 0.02% MMS (Sigma) was performed as described. To examine the effects of partner overexpression on pol30 mutant strains, these strains were transformed with various plasmids containing GST-tagged PCNA partner encoding genes under the control of a GAL1/10 inducible promoter, as previously described. Overnight cultures were plated in serial dilutions on SC-Ura containing either glucose or galactose with or without DNA-damaging agents, as described above.

Molecule	fold change in affinity relative to WT PCNA (Y2H generation time) (pol30-79 (yeast), P15873)	Binding of PCNA Mutants to Target Partners: Pol32 (Y2H) (Pol32)	Binding of PCNA Mutants to Target Partners: Ung1 (Y2H) (Ung1)	Binding of PCNA Mutants to Target Partners: Msh6 (Y2H) (Msh6)	Binding of PCNA Mutants to Target Partners: Rad27, fold increase or decrease (quantitative Y2H) (Rad27)	Y2H growth relative to WT PCNA-expressing strain: Rrm3 (Rrm3)	Y2H growth relative to WT PCNA-expressing strain: Cac1 (Cac1)	Y2H growth relative to WT PCNA-expressing strain: Apn2 (Apn2)	Y2H growth relative to WT PCNA-expressing strain: Cdc9 (Cdc9)	Y2H growth relative to WT PCNA-expressing strain: Rfc1 (Rfc1)	Y2H growth relative to WT PCNA-expressing strain: Msh3 (Msh3)	Y2H growth relative to WT PCNA-expressing strain: Eco1 (Eco1)	viability of strain containing the mutant as the sole source of PCNA (yeast strains)	effect of rad27 deletion on lethality of the mutant strain (yeast strains)
Rad30, Q04049 1-632 (natural protein) MSKFTWKELIQLGSPSKAYESSLACIAHIDMNAFFAQVEQMRCGLSKEDPVVCVQWNSIIAVSYAARKYGISRMDTIQEALKKCSNLIPIHTAVFKKGEDFWQYHDGCGSWVQDPAKQISVEDHKVSLEPYRRESRKALKIFKSACDLVERASIDEVFLDLGRICFNMLMFDNEYELTGDLKLKDALSNIREAFIGGNYDINSHLPLIPEKIKSLKFEGDVFNPEGRDLITDWDDVILALGSQVCKGIRDSIKDILGYTTSCGLSSTKNVCKLASNYKKPDAQTIVKNDCLLDFLDCGKFEITSFWTLGGVLGKELIDVLDLPHENSIKHIRETWPDNAGQLKEFLDAKVKQSDYDRSTSNIDPLKTADLAEKLFKLSRGRYGLPLSSRPVVKSMMSNKNLRGKSCNSIVDCISWLEVFCAELTSRIQDLEQEYNKIVIPRTVSISLKTKSYEVYRKSGPVAYKGINFQSHELLKVGIKFVTDLDIKGKNKSYYPLTKLSMTITNFDIIDLQKTVVDMFGNQVHTFKSSAGKEDEEKTTSSKADEKTPKLECCKYQVTFTDQKALQEHADYHLALKLSEGLNGAEESSKNLSFGEKRLLFSRKRPNSQHTATPQKKQVTSSKNILSFFTRKK	0.4 fold													
pol30-Rad27L1: PCNA mutant evolved for Rad27, two-residue deletion, IDCL sequence D––VDILKIGEL (protein, left off: Gal4 activation domain, end not stated, kept) MLEAKFEEASLFKRIIDGFKDCVQLVNFQCKEDGIIAQAVDDSRVLLVSLEIGVEAFQEYRCDHPVTLGMDLTSLSKILRCGNNTDTLTLIADNTPDSIILLFEDTKKDRIAEYSLKLMDVDILKIGELQYDSTLSLPSSEFSKIVRDLSQLSDSINIMITKETIKFVADGDIGSGSVIIKPFVDMEHPETSIKLEMDQPVDLTFGAKYLLDIIKGSSLSDRVGIRLSSEAPALFQFDLKSGFLQFFLAPKFNDEE		1	1	1	1.7 ^c fold	WT	--	WT	WT	WT	WT	--	lethality	suppressed the lethality
pol30-Rad27L2: PCNA mutant evolved for Rad27, two-residue deletion, IDCL sequence D––VDTLKITEL (protein, left off: Gal4 activation domain, end not stated, kept) MLEAKFEEASLFKRIIDGFKDCVQLVNFQCKEDGIIAQAVDDSRVLLVSLEIGVEAFQEYRCDHPVTLGMDLTSLSKILRCGNNTDTLTLIADNTPDSIILLFEDTKKDRIAEYSLKLMDVDTLKITELQYDSTLSLPSSEFSKIVRDLSQLSDSINIMITKETIKFVADGDIGSGSVIIKPFVDMEHPETSIKLEMDQPVDLTFGAKYLLDIIKGSSLSDRVGIRLSSEAPALFQFDLKSGFLQFFLAPKFNDEE		1	1	1	1.5 ^c fold	WT	--	WT	WT	WT	WT	--	lethality	suppressed the lethality
